Reference: US10227388B2, “Peptides and combination of peptides for use in immunotherapy against non-small cell lung cancer and other cancers” (immatics biotechnologies GmbH, priority 2015, dated 2019)

What follows are substances tested against HLA-A*02:01 (Homo sapiens, UniProt P04439, D140Y/D185E/D98H/E176V/E277Q/G131W/G231S/I119V/I121R/I166T/I218V/L300P/L318F/N151K/N90K/P208A/P217A/Q86G/Q94H/R138H/R169H/T345S) (assay: MHC binding assay (UV-ligand exchange, ELISA, peptide exchange yield)). Conditions: binding of HLA-class I restricted peptides to HLA-A*02:01.
Method in brief: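 Exchange yield was quantified as stabilized β2m-containing complex: monomers diluted 100-fold bound to streptavidin-coated wells, probed with HRP-conjugated anti-β2m, read at 450 nm after TMB. Complexes had been generated by UV cleavage of a photolabile ligand and replacement with the candidate peptide.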

Substance	Peptide exchange (MHC class I binding score, peptide exchange yield)
429 (GLVNDLARV; listed as Homo sapiens) [compound 429]	″++″ (≥20% = ++)
430 (HLYSSIEHLTT; listed as Homo sapiens) [compound 430]	″+++″ (≥50% = +++)
431 (SLVNVVPKL; listed as Homo sapiens) [compound 431]	″++″ (≥20% = ++)
432 (TLIEESAKV; listed as Homo sapiens) [compound 432]	″++″ (≥20% = ++)
433 (AMLNEPWAV; listed as Homo sapiens) [compound 433]	″+++″ (≥50% = +++)
434 (KVSNSGITRV; listed as Homo sapiens) [compound 434]	″++″ (≥20% = ++)
436 (HLAEVSAEV; listed as Homo sapiens) [compound 436]	″+++″ (≥50% = +++)
437 (SMAPGLVIQAV; listed as Homo sapiens) [compound 437]	″+++″ (≥50% = +++)
442 (GLLGGGGVLGV; listed as Homo sapiens) [compound 442]	″+++″ (≥50% = +++)
444 (GLLRDEALAEV; listed as Homo sapiens) [compound 444]	″+++″ (≥50% = +++)
447 (QLVPALAKV; listed as Homo sapiens) [compound 447]	″++″ (≥20% = ++)
448 (NLLETKLQL; listed as Homo sapiens) [compound 448]	″+++″ (≥50% = +++)
449 (KLAEGLDIQL; listed as Homo sapiens) [compound 449]	″+++″ (≥50% = +++)
450 (FMIDASVHPTL; listed as Homo sapiens) [compound 450]	″+++″ (≥50% = +++)
451 (LLLLDTVTMQV; listed as Homo sapiens) [compound 451]	″++″ (≥20% = ++)
454 (KLPPPPPQA; listed as Homo sapiens) [compound 454]	″+++″ (≥50% = +++)
456 (LLIGHLERV; listed as Homo sapiens) [compound 456]	″+++″ (≥50% = +++)
459 (ALITEVVRL; listed as Homo sapiens) [compound 459]	″++″ (≥20% = ++)
461 (VMFRTPLASV; listed as Homo sapiens) [compound 461]	″++″ (≥20% = ++)
462 (KLAKQPETV; listed as Homo sapiens) [compound 462]	″+++″ (≥50% = +++)
464 (ALNDCIYSV; listed as Homo sapiens) [compound 464]	″+++″ (≥50% = +++)

Substance	Peptide exchange (MHC class I binding score, peptide exchange yield)
466 (VLIANLEKL; listed as Homo sapiens) [compound 466]	″++++″ (≥75% = ++++)
467 (FLAKDFNFL; listed as Homo sapiens) [compound 467]	″+++″ (≥50% = +++)
468 (YLRSVGDGETV; listed as Homo sapiens) [compound 468]	″+++″ (≥50% = +++)
469 (YLASDEITTV; listed as Homo sapiens) [compound 469]	″+++″ (≥50% = +++)
472 (KLLEVSDDPQV; listed as Homo sapiens) [compound 472]	″+++″ (≥50% = +++)
473 (AMATESILHFA; listed as Homo sapiens) [compound 473]	″+++″ (≥50% = +++)
474 (YLDPALELGPRNV; listed as Homo sapiens) [compound 474]	″+++″ (≥50% = +++)
475 (LLLNEEALAQI; listed as Homo sapiens) [compound 475]	″+++″ (≥50% = +++)
478 (YLLHEKLNL; listed as Homo sapiens) [compound 478]	″+++″ (≥50% = +++)
479 (SLFGNSGILENV; listed as Homo sapiens) [compound 479]	″+++″ (≥50% = +++)
481 (GLIEDYEALL; listed as Homo sapiens) [compound 481]	″+++″ (≥50% = +++)
484 (SLIEKVTQL; listed as Homo sapiens) [compound 484]	″+++″ (≥50% = +++)
485 (NVPDSFNEV; listed as Homo sapiens) [compound 485]	″+++″ (≥50% = +++)
486 (AVMESIQGV; listed as Homo sapiens) [compound 486]	″+++″ (≥50% = +++)
487 (LLINSVFHV; listed as Homo sapiens) [compound 487]	″+++″ (≥50% = +++)
491 (GLNDRSDAV; listed as Homo sapiens) [compound 491]	″++″ (≥20% = ++)
495 (FIFSEKPVFV; listed as Homo sapiens) [compound 495]	″+++″ (≥50% = +++)
496 (FLVEKQPPQV; listed as Homo sapiens) [compound 496]	″+++″ (≥50% = +++)
497 (GLLEKLTAI; listed as Homo sapiens) [compound 497]	″+++″ (≥50% = +++)
498 (KLWTGGLDNTV; listed as Homo sapiens) [compound 498]	″+++″ (≥50% = +++)
501 (LLDPNVKSIFV; listed as Homo sapiens) [compound 501]	″+++″ (≥50% = +++)

Continued, values first:

Peptide exchange (MHC class I binding score, peptide exchange yield)	Substance
″++++″ (≥75% = ++++)	438 (KLLPLAGLYL; listed as Homo sapiens) [compound 438]
″+++″ (≥50% = +++)	439 (YLLQEIYGI; listed as Homo sapiens) [compound 439]
″++″ (≥20% = ++)	440 (ALADGVTMQV; listed as Homo sapiens) [compound 440]
″+++″ (≥50% = +++)	441 (ALLENPKMEL; listed as Homo sapiens) [compound 441]
″+++″ (≥50% = +++)	446 (QLIPALAKV; listed as Homo sapiens) [compound 446]
″+++″ (≥50% = +++)	452 (ILLEHGADPNL; listed as Homo sapiens) [compound 452]
″++″ (≥20% = ++)	453 (KLLEATSAV; listed as Homo sapiens) [compound 453]
″++″ (≥20% = ++)	455 (SLLKEPQKVQL; listed as Homo sapiens) [compound 455]
″+++″ (≥50% = +++)	457 (SLLPGNLVEKV; listed as Homo sapiens) [compound 457]
″++″ (≥20% = ++)	458 (SLIDKLYNI; listed as Homo sapiens) [compound 458]
″+++″ (≥50% = +++)	463 (SLVESHLSDQLTL; listed as Homo sapiens) [compound 463]
″+++″ (≥50% = +++)	465 (QLCDLNAEL; listed as Homo sapiens) [compound 465]
″+++″ (≥50% = +++)	471 (YLYNNMIAKI; listed as Homo sapiens) [compound 471]
″+++″ (≥50% = +++)	476 (ALMERTGYSMV; listed as Homo sapiens) [compound 476]
″+++″ (≥50% = +++)	477 (ALLPASGQIAL; listed as Homo sapiens) [compound 477]
″+++″ (≥50% = +++)	480 (ALLEDSCHYL; listed as Homo sapiens) [compound 480]
″+++″ (≥50% = +++)	488 (FLAEDPKVTL; listed as Homo sapiens) [compound 488]
″+++″ (≥50% = +++)	490 (FLLQHVQEL; listed as Homo sapiens) [compound 490]
″+++″ (≥50% = +++)	492 (SLFDGFADGLGV; listed as Homo sapiens) [compound 492]
″+++″ (≥50% = +++)	493 (GLLGEKTQDLIGV; listed as Homo sapiens) [compound 493]
″++″ (≥20% = ++)	494 (ALQPEPIKV; listed as Homo sapiens) [compound 494]
″+++″ (≥50% = +++)	500 (SLMEDQVLQL; listed as Homo sapiens) [compound 500]
″+++″ (≥50% = +++)	502 (RLLAQVPGL; listed as Homo sapiens) [compound 502]
″+++″ (≥50% = +++)	503 (SLNHFTHSV; listed as Homo sapiens) [compound 503]
